For data set [1], the target named is c-Fos model fragment;c-Jun model fragment (Mus musculus?;Mus musculus?, UniProt P01101;P05627 118-212;237-334, |). Put plainly: mRNA display affinity selection, qPCR.
Another data set addresses T1, JunB selected fragment (Mus musculus, UniProt P09450 265-328).
T1 sequence: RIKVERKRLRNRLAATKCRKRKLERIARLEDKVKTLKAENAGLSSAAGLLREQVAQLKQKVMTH
Kind of data set: EMSA. For orientation: Mobility shift assays separate free from complexed probe on a gel.

The next data set has as its target T2, JunD selected fragment (Mus musculus, UniProt P15066 262-325).
T2 sequence: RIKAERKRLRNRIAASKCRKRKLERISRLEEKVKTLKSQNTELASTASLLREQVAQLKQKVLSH
Kind of data set: EMSA.

The next data set has as its target c-Jun selected fragment (Mus musculus, UniProt P05627 255-313). Kind of data set: EMSA.

Chain of c-Fos model fragment;c-Jun model fragment (P01101 118-212, chain 1 of 2): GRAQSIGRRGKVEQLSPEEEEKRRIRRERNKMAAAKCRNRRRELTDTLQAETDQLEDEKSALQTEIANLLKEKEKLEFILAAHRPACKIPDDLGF
Chain of c-Fos model fragment;c-Jun model fragment (P05627 237-334, chain 2 of 2): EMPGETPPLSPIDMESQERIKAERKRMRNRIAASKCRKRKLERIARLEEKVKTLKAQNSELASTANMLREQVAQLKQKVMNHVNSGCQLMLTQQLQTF
Chain of c-Jun selected fragment (P05627 255-313): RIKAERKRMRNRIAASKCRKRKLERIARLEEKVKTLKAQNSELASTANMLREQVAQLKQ

B1: TRE bait DNA (dsDNA)
DNA 1: TGATGACTCATCTCCTATGACTCATCCATTGCATGACTCAGACTTGATGAGTCAGCCGAGCATGAGTCAGACACCTTGCCTGAGCTCAGA
DNA 2: TTCTGAGCTCAGGCAAGGTGTCTGACTCATGCTCGGCTGACTCATCAAGTCTGAGTCATGCAATGGATGAGTCATAGGAGATGAGTCATCA
For B1, the binding signal in data set [1] is around 100 fold enrichment.

B2: TRE EMSA probe (dsDNA)
DNA 1: TTCTCCTATGACTCATCCAT
DNA 2: AATGGATGAGTCATAGGAGA
On to B2, for which the binding result in the data set with JunB selected fragment, in the data set with JunD selected fragment and with c-Jun selected fragment was “binds” in each case.

For the origin of these results see article PMC1369289.
